According to patent US20140274782A1, “AFFINITY REAGENTS AND METHODS FOR DETECTION, PURIFICATION, AND PROTEOMIC ANALYSIS OF METHYLATED PROTEINS” (The Board of Trustees of the Leland Stanford Junior …, priority 2013, published 2014):

How the values were obtained:
3×MBT domain of L3MBTL1 = test: Triple SILAC pull-down, 3xMBT/3xMBTD355N ratio (cytoplasmic, nuclear and chromatin fractions of 293T cells); type: binding, human; conditions: SILAC ratio 3xMBT vs 3xMBTD355N pull-down, 293T cells, all values in log base 2; for 3xMBT/D355N UNC Heavy: experiment with UNC0638 in heavy SILAC media; for 3xMBT/D355N UNC Light: experiment with UNC0638 in light SILAC media;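 for all read-outs here: proteins quantified with MaxQuant, requiring at least two unique peptides and quantification in both label directions, normalized to the mean of proteins from a digested loading control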
G9a and GLP = target: T1, G9a and GLP (Homo sapiens, UniProt Q96KQ7+Q9H9B1); test: Triple SILAC pull-down after UNC0638 treatment of 293T cells, DMSO/UNC0638 ratio of protein captured by 3×MBT; type: cell-based; parameters: endogenous in cells; host or cells: HEK 293T; conditions: all values in log base 2; for Relative to UNC0638 UNC Heavy / Relative to UNC0638 UNC Light: SILAC ratio DMSO relative to UNC0638, pull-down with 3xMBT; for Relative to UNC0638 UNC Heavy: UNC0638 in heavy SILAC media; for Relative to UNC0638 UNC Light: UNC0638 in light SILAC media; for Relative to UNC0638 Average: average of UNC Light and UNC Heavy experiments;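 for all read-outs here: mass spectrometry (Q-Exactive) SILAC quantitation, DMSO/UNC0638 ratio computed after subtracting 3×MBTD355N mutant pull-down background, only proteins with at least twofold 3×MBT over mutant signal considered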
T1 sequence (Q96KQ7 2-1210 limits assumed): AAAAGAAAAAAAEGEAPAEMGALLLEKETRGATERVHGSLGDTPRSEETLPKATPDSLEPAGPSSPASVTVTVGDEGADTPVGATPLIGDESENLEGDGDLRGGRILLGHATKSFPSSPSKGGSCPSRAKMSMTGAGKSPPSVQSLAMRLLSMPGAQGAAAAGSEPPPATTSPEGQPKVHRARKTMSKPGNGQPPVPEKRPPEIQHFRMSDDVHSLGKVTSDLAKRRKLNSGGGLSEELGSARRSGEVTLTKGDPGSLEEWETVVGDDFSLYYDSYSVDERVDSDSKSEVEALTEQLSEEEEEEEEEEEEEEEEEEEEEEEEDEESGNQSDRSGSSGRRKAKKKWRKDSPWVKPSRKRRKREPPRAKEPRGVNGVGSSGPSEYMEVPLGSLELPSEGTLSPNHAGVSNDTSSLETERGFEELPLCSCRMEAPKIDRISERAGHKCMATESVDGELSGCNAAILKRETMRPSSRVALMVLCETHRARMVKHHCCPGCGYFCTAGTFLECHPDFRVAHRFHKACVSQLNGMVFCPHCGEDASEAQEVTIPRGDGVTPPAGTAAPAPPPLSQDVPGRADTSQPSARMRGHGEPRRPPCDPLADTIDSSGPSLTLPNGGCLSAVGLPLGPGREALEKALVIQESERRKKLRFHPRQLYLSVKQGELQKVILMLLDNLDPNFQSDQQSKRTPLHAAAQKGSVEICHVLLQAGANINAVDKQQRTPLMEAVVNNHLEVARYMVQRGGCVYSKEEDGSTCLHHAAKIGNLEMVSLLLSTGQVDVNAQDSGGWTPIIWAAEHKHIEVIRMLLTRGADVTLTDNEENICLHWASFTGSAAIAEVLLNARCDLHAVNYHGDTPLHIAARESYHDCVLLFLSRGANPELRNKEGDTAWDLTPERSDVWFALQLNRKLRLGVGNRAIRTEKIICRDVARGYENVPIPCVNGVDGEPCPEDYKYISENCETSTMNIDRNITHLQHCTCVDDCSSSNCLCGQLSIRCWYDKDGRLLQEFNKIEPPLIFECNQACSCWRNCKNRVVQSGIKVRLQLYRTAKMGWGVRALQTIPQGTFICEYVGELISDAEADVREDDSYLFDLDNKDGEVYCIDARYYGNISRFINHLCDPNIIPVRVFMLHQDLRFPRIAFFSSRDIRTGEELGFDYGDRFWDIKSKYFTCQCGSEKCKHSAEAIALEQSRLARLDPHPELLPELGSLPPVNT
T1 sequence (Q9H9B1 2-1298 limits assumed): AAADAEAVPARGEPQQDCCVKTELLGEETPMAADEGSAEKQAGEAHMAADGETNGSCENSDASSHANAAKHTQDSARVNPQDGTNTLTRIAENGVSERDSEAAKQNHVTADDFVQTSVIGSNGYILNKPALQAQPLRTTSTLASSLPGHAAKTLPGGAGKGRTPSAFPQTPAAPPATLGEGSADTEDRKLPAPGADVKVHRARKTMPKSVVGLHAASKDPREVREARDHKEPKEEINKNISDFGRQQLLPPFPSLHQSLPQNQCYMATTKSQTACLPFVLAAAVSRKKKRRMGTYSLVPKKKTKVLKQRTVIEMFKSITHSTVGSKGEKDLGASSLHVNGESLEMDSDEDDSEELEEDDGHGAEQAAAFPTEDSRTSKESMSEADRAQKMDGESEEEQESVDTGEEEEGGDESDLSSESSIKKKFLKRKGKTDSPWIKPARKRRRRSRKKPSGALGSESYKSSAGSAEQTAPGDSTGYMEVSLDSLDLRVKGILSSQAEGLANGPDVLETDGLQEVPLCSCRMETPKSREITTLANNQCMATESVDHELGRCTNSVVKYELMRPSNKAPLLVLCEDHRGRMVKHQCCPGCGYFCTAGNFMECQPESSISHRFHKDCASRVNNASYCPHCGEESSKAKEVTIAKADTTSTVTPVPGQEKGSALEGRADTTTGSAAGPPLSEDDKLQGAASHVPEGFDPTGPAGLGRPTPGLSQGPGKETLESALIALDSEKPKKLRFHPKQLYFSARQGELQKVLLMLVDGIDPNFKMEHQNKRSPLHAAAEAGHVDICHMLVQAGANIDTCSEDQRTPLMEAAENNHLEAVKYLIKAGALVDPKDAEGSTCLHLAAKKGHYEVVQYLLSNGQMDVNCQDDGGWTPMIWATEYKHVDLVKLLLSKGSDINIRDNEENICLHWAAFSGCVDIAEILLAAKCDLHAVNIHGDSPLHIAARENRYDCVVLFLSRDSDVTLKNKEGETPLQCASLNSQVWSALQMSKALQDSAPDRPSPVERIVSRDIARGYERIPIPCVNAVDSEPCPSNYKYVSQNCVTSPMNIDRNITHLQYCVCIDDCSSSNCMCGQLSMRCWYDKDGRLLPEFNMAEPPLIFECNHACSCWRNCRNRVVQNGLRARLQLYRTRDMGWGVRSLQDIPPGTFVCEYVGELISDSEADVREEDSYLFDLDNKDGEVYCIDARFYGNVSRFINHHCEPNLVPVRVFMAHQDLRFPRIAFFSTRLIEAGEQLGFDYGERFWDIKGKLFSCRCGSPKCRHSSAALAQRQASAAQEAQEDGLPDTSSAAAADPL

B1: MAP4 (protein, UniProt P27816 2-1152, looked up)
Microtubule-associated …: ADLSLADALTEPSPDIEGEIKRDFIATLEAEAFDDVVGETVGKTDYIPLLDVDEKTGNSESKKKPCSETSQIEDTPSSKPTLLANGGHGVEGSDTTGSPTEFLEEKMAYQEYPNSQNWPEDTNFCFQPEQVVDPIQTDPFKMYHDDDLADLVFPSSATADTSIFAGQNDPLKDSYGMSPCNTAVVPQGWSVEALNSPHSESFVSPEAVAEPPQPTAVPLELAKEIEMASEERPPAQALEIMMGLKTTDMAPSKETEMALAKDMALATKTEVALAKDMESPTKLDVTLAKDMQPSMESDMALVKDMELPTEKEVALVKDVRWPTETDVSSAKNVVLPTETEVAPAKDVTLLKETERASPIKMDLAPSKDMGPPKENKKETERASPIKMDLAPSKDMGPPKENKIVPAKDLVLLSEIEVAQANDIISSTEISSAEKVALSSETEVALARDMTLPPETNVILTKDKALPLEAEVAPVKDMAQLPETEIAPAKDVAPSTVKEVGLLKDMSPLSETEMALGKDVTPPPETEVVLIKNVCLPPEMEVALTEDQVPALKTEAPLAKDGVLTLANNVTPAKDVPPLSETEATPVPIKDMEIAQTQKGISEDSHLESLQDVGQSAAPTFMISPETVTGTGKKCSLPAEEDSVLEKLGERKPCNSQPSELSSETSGIARPEEGRPVVSGTGNDITTPPNKELPPSPEKKTKPLATTQPAKTSTSKAKTQPTSLPKQPAPTTIGGLNKKPMSLASGLVPAAPPKRPAVASARPSILPSKDVKPKPIADAKAPEKRASPSKPASAPASRSGSKSTQTVAKTTTAAAVASTGPSSRSPSTLLPKKPTAIKTEGKPAEVKKMTAKSVPADLSRPKSTSTSSMKKTTTLSGTAPAAGVVPSRVKATPMPSRPSTTPFIDKKPTSAKPSSTTPRLSRLATNTSAPDLKNVRSKVGSTENIKHQPGGGRAKVEKKTEAAATTRKPESNAVTKTAGPIASAQKQPAGKVQIVSKKVSYSHIQSKCGSKDNIKHVPGGGNVQIQNKKVDISKVSSKCGSKANIKHKPGGGDVKIESQKLNFKEKAQAKVGSLDNVGHLPAGGAVKTEGGGSEAPLCPGPPAGEEPAISEAAPEAGAPTSASGLNGHPTLSGGGDQREAQTLDSQIQETSI
For B1, the “3xMBT/D355N UNC Heavy” value (3×MBT domain of L3MBTL1) was 1.41 log base 2, the “3xMBT/D355N UNC Light” value (3×MBT domain of L3MBTL1) was 2.75 log base 2 and the “Relative to UNC0638 UNC Heavy” value (G9a and GLP) was 0.13 log base 2. For the same molecule, the “Relative to UNC0638 UNC Light” value (G9a and GLP) was 0.03 log base 2 and the “Relative to UNC0638 Average” value (G9a and GLP) was 0.08 log base 2.

B2: UBAP2L (protein, UniProt Q14157 1-1087, looked up)
Ubiquitin-associated protein …: MMTSVGTNRARGNWEQPQNQNQTQHKQRPQATAEQIRLAQMISDHNDADFEEKVKQLIDITGKNQDECVIALHDCNGDVNRAINVLLEGNPDTHSWEMVGKKKGVSGQKDGGQTESNEEGKENRDRDRDYSRRRGGPPRRGRGASRGREFRGQENGLDGTKSGGPSGRGTERGRRGRGRGRGGSGRRGGRFSAQGMGTFNPADYAEPANTDDNYGNSSGNTWNNTGHFEPDDGTSAWRTATEEWGTEDWNEDLSETKIFTASNVSSVPLPAENVTITAGQRIDLAVLLGKTPSTMENDSSNLDPSQAPSLAQPLVFSNSKQTAISQPASGNTFSHHSMVSMLGKGFGDVGEAKGGSTTGSQFLEQFKTAQALAQLAAQHSQSGSTTTSSWDMGSTTQSPSLVQYDLKNPSDSAVHSPFTKRQAFTPSSTMMEVFLQEKSPAVATSTAAPPPPSSPLPSKSTSAPQMSPGSSDNQSSSPQPAQQKLKQQKKKASLTSKIPALAVEMPGSADISGLNLQFGALQFGSEPVLSDYESTPTTSASSSQAPSSLYTSTASESSSTISSNQSQESGYQSGPIQSTTYTSQNNAQGPLYEQRSTQTRRYPSSISSSPQKDLTQAKNGFSSVQATQLQTTQSVEGATGSAVKSDSPSTSSIPPLNETVSAASLLTTTNQHSSSLGGLSHSEEIPNTTTTQHSSTLSTQQNTLSSSTSSGRTSTSTLLHTSVESEANLHSSSSTFSTTSSTVSAPPPVVSVSSSLNSGSSLGLSLGSNSTVTASTRSSVATTSGKAPPNLPPGVPPLLPNPYIMAPGLLHAYPPQVYGYDDLQMLQTRFPLDYYSIPFPTPTTPLTGRDGSLASNPYSGDLTKFGRGDASSPAPATTLAQPQQNQTQTHHTTQQTFLNPALPPGYSYTSLPYYTGVPGLPSTFQYGPAVFPVAPTSSKQHGVNVSVNASATPFQQPSGYGSHGYNTGVSVTSSNTGVPDISGSVYSKTQQSFEKQGFHSGTPAASFNLPSALGSGGPINPATAAAYPPAPFMHILTPHQQPHSQILHHHLQQDGQTGSGQRSQTSSIPQKPQTNKSAYNSYSWGAN
For B2, the “3xMBT/D355N UNC Heavy” value (3×MBT domain of L3MBTL1) was 2.82 log base 2, the “3xMBT/D355N UNC Light” value (3×MBT domain of L3MBTL1) was 1.83 log base 2 and the “Relative to UNC0638 UNC Heavy” value (G9a and GLP) was 0.22 log base 2. The “Relative to UNC0638 UNC Light” value (G9a and GLP) was −0.06 log base 2 and the “Relative to UNC0638 Average” value (G9a and GLP) was 0.08 log base 2.
